According to the supplement of paper PMC10567573:

B1: TOR1AIP2 (parent)
chain: YKYCDHENAAFKDVALVLTVLLEE

Variants of: B1
Test: protein stability index of a GFP-peptide fusion (GPS, HEK-293T) (PSI 1-6); higher = more stable
Settings: c terminus: a fixed tail appended
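Also: lentivirally expressed fusions sorted by FACS into six bins by GFP to DsRed ratio, PSI derived from sequencing read proportions per bin multiplied by bin number.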

Going from L18G to L18C, the protein stability index falls from 3.58 to 1.6.

First: L18K
Second: L18P
The protein stability index of the first is higher: 3.17 for the first, 3.09 for the second.

Compared with L18E, L18A is lower in protein stability index: 3.93 for the first, 1.91 for the second.

Compared with L18T, L18D is higher in protein stability index: 1.96 for the first, 4.76 for the second.

Compared with L18Q, L18Y is lower in protein stability index: 3.16 for the first, 1.43 for the second.

First: L18N
Second: L18I
The protein stability index of the first is lower: 3.26 for the first, 4.54 for the second.

Going from L18F to L18R, the protein stability index rises from 2 to 2.16.

Going from L18H to L18S, the protein stability index rises from 2.77 to 3.57.

First: E24I
Second: E24K
The protein stability index of the first is higher: 3.78 for the first, 2.19 for the second.

First: E24R
Second: E24Y
The protein stability index of the first is higher: 3.2 for the first, 2.58 for the second.

Going from E24H to E24A, the protein stability index falls from 3.71 to 2.84.

First: E24F
Second: E24D
The protein stability index of the first is higher: 3.27 for the first, 2.86 for the second.

First: E24N
Second: E24S
The protein stability index of the first is higher: 3.74 for the first, 3.26 for the second.

Going from A15T to A15I, the protein stability index falls from 3.21 to 1.96.

First: A15P
Second: A15S
The protein stability index of the first is lower: 2.05 for the first, 2.69 for the second.

Compared with A15Q, A15E is lower in protein stability index: 2.58 for the first, 1 for the second.

First: A15R
Second: A15G
The protein stability index of the first is lower: 2.8 for the first, 3.58 for the second.

First: T19P
Second: T19R
The protein stability index of the first is lower: 1.74 for the first, 4.55 for the second.

First: T19F
Second: T19N
The protein stability index of the first is higher: 2.68 for the first, 2.25 for the second.

Going from T19H to T19C, the protein stability index rises from 1.67 to 5.95.

Going from T19M to T19L, the protein stability index rises from 2.87 to 3.88.

First: T19D
Second: T19K
The protein stability index of the first is lower: 1.3 for the first, 4.43 for the second.

Compared with L16S, L16R is lower in protein stability index: 2.2 for the first, 1.4 for the second.

First: L16N
Second: L16C
The protein stability index of the first is higher: 2.88 for the first, 1.47 for the second.

First: L16P
Second: L16K
The protein stability index of the first is lower: 2.36 for the first, 2.72 for the second.

Compared with L16W, L16H is lower in protein stability index: 3.88 for the first, 1.9 for the second.

First: L16T
Second: L16E
The protein stability index of the first is lower: 1.5 for the first, 1.51 for the second.

Going from V17R to V17N, the protein stability index rises from 1.73 to 2.3.

Compared with V17D, V17A is higher in protein stability index: 2.23 for the first, 3.79 for the second.

Going from V17W to V17F, the protein stability index rises from 2.31 to 2.66.

Going from V17G to V17Y, the protein stability index rises from 2.05 to 3.19.

First: V17Q
Second: V17M
The protein stability index of the first is lower: 1.84 for the first, 1.94 for the second.

Compared with V17E, V17S is higher in protein stability index: 2.51 for the first, 3.6 for the second.

First: V17K
Second: V17P
The protein stability index of the first is lower: 1.89 for the first, 3.33 for the second.

Compared with V14H, V14T is lower in protein stability index: 1.4 for the first, 1 for the second.

First: V14L
Second: V14D
The protein stability index of the first is higher: 4.94 for the first, 1.46 for the second.

Going from V14C to V14I, the protein stability index rises from 1.65 to 2.17.

Compared with V14R, V14A is higher in protein stability index: 1.54 for the first, 2.48 for the second.

Compared with V14K, V14E is lower in protein stability index: 2.12 for the first, 1.57 for the second.

Compared with V14P, L21Q is lower in protein stability index: 1.88 for the first, 1.73 for the second.

First: L21M
Second: L21G
The protein stability index of the first is higher: 2.03 for the first, 1.05 for the second.

Compared with L21T, L21D is lower in protein stability index: 4.25 for the first, 2.29 for the second.

Compared with L21C, L21I is higher in protein stability index: 1.47 for the first, 2.99 for the second.

Going from L21S to L21W, the protein stability index rises from 1.5 to 2.84.

First: L21P
Second: D13Y
The protein stability index of the first is lower: 1.73 for the first, 4.52 for the second.

Compared with V20S, V20T is higher in protein stability index: 1.41 for the first, 2.03 for the second.

Going from V20H to V20A, the protein stability index falls from 1.46 to 1.06.

Going from V20E to V20K, the protein stability index rises from 1.73 to 2.03.

Compared with V20D, V20G is higher in protein stability index: 2.21 for the first, 2.83 for the second.

Compared with V20P, V20N is higher in protein stability index: 2.23 for the first, 2.29 for the second.

Going from V20M to V20R, the protein stability index falls from 4.6 to 2.03.

First: V20Y
Second: V20C
The protein stability index of the first is higher: 3.45 for the first, 2.82 for the second.

First: V20Q
Second: L22H
The protein stability index of the first is lower: 1.56 for the first, 2.53 for the second.

Compared with L22D, L22Y is higher in protein stability index: 2.07 for the first, 3.23 for the second.

Compared with L22A, L22S is lower in protein stability index: 3.63 for the first, 1.12 for the second.

Compared with L22N, L22R is lower in protein stability index: 3.49 for the first, 2.7 for the second.

Compared with L22Q, E23L is higher in protein stability index: 1 for the first, 5.46 for the second.

First: E23Q
Second: E23H
The protein stability index of the first is lower: 2.07 for the first, 2.89 for the second.

Compared with E23I, E23A is higher in protein stability index: 2.81 for the first, 3.33 for the second.

First: E23C
Second: E23P
The protein stability index of the first is higher: 4.77 for the first, 4 for the second.

Variant E23N has a protein stability index of 2.26.
